This note sets out measurements from patent US20220204580A1 (AstraZeneca / MedImmune, published 2022).

Numbered stars: 1 amine (or outer) side, 2 acyl side, 3 side chain; on linkers, the order of the positions; unused ones are H or OH. Bridge positions count the residues as written; N and C are the ends. Square brackets hold non-standard residues; d marks the D form. Side chains are listed from the residue outwards. Ends that are not written are not given here. * marks the point of attachment. C18 diacid = O=C(O)CCCCCCCCCCCCCCCCC(=O)*; γGlu = O=C(O)[C@H](CCC(=O)[*:2])N[*:1]; αMeF = C[C@](N)(Cc1ccccc1)C(=O)O; Aib = CC(C)(N)C(=O)O

Common to all, as to test: cell-based or functional assay
Assay [1] addresses T1, human amylin receptor (calcitonin receptor co-expressed with receptor activity modifying protein, RAMP3) (human, UniProt P30988 25-474; O60896 24-148).
T1 sequence (looked up) 1: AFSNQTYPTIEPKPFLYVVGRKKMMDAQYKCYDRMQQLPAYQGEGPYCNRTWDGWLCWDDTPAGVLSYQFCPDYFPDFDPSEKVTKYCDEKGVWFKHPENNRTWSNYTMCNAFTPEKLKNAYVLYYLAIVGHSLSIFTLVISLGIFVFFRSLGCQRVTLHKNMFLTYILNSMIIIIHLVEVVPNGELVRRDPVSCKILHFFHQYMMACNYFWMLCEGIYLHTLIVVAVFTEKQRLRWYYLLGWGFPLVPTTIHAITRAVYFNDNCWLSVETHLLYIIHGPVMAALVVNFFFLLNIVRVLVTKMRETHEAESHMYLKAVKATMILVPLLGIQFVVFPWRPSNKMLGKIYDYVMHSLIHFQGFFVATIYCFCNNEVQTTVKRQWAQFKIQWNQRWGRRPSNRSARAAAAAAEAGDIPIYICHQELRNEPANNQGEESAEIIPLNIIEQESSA
T1 sequence (looked up) 2: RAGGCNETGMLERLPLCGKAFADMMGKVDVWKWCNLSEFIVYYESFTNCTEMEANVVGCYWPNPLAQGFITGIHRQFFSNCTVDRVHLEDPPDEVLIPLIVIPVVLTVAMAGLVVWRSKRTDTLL

In assay [2] the target is T2, human calcitonin receptor (human, UniProt P30988 25-474).
T2 sequence (looked up): T1 sequence (looked up) 1

Assay [3] concerns the target T3, rat amylin receptor (calcitonin receptor co-expressed with receptor activity modifying protein, RAMP3) (rat, UniProt P32214 25-516; Q9JJ73 23-147).
T3 sequence (looked up) 1: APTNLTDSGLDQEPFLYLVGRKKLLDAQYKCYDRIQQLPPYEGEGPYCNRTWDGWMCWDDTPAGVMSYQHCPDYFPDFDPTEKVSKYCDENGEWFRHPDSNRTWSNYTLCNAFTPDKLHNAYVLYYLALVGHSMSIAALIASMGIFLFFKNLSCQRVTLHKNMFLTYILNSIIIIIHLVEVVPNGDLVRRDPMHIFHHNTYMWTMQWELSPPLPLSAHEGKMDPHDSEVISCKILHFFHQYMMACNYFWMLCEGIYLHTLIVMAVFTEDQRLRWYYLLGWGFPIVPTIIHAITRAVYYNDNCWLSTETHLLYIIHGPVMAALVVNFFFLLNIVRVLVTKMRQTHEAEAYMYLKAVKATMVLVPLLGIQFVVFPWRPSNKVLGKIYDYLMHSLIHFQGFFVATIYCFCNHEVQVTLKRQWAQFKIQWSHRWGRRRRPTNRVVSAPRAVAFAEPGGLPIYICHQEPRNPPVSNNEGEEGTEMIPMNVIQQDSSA
T3 sequence (looked up) 2: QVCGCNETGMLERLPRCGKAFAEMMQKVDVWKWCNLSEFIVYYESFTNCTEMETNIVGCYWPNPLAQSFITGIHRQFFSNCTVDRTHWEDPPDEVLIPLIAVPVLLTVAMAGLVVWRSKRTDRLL

The target in a further assay is T4, rat calcitonin receptor (rat, UniProt P32214 25-516).
T4 sequence (looked up): T3 sequence (looked up) 1

B1: Peptide 24 (SEQ ID NO: 24) (peptide)
peptide: K([γGlu-γGlu-C18 diacid])CNTATCATQRLANFLVHSSNN[αMeF]GPILPPTRVGSNTY-NH2
modifications: disulfide 2-7; N-terminus assumed
SMILES: CC[C@H](C)[C@H](NC(=O)[C@@H]1CCCN1C(=O)CNC(=O)[C@](C)(Cc1ccccc1)NC(=O)[C@H](CC(N)=O)NC(=O)[C@H](CC(N)=O)NC(=O)[C@H](CO)NC(=O)[C@H](CO)NC(=O)[C@H](Cc1c[nH]cn1)NC(=O)[C@@H](NC(=O)[C@H](CC(C)C)NC(=O)[C@H](Cc1ccccc1)NC(=O)[C@H](CC(N)=O)NC(=O)[C@H](C)NC(=O)[C@H](CC(C)C)NC(=O)[C@H](CCCNC(=N)N)NC(=O)[C@H](CCC(N)=O)NC(=O)[C@@H](NC(=O)[C@H](C)NC(=O)[C@@H]1CSSC[C@H](NC(=O)[C@@H](N)CCCCNC(=O)CC[C@H](NC(=O)CC[C@H](NC(=O)CCCCCCCCCCCCCCCCC(=O)O)C(=O)O)C(=O)O)C(=O)N[C@@H](CC(N)=O)C(=O)N[C@@H]([C@@H](C)O)C(=O)N[C@@H](C)C(=O)N[C@@H]([C@@H](C)O)C(=O)N1)[C@@H](C)O)C(C)C)C(=O)N[C@@H](CC(C)C)C(=O)N1CCC[C@H]1C(=O)N1CCC[C@H]1C(=O)N[C@H](C(=O)N[C@@H](CCCNC(=N)N)C(=O)N[C@H](C(=O)NCC(=O)N[C@@H](CO)C(=O)N[C@@H](CC(N)=O)C(=O)N[C@H](C(=O)N[C@@H](Cc1ccc(O)cc1)C(N)=O)[C@@H](C)O)C(C)C)[C@@H](C)O
Regarding B1, the “EC50 (cAMP production)” value in assay [1] was 0.127 nM; in assay [2], 1.86 nM; in assay [3] it was 0.0177 nM; with rat calcitonin receptor it was 0.755 nM. The “Ratio (EC50 hCTR / EC50 hAMYR3)” value in assay [1] amounted to 15.

B2: Peptide 149 (SEQ ID NO: 149) (peptide)
peptide: K([γGlu-C18 diacid])CNTATCATQRLANFL[Aib]HSSNNFGPILPPTNVGSNTY-NH2
modifications: disulfide 2-7; N-terminus assumed
SMILES: CC[C@H](C)[C@H](NC(=O)[C@@H]1CCCN1C(=O)CNC(=O)[C@H](Cc1ccccc1)NC(=O)[C@H](CC(N)=O)NC(=O)[C@H](CC(N)=O)NC(=O)[C@H](CO)NC(=O)[C@H](CO)NC(=O)[C@H](Cc1c[nH]cn1)NC(=O)C(C)(C)NC(=O)[C@H](CC(C)C)NC(=O)[C@H](Cc1ccccc1)NC(=O)[C@H](CC(N)=O)NC(=O)[C@H](C)NC(=O)[C@H](CC(C)C)NC(=O)[C@H](CCCNC(=N)N)NC(=O)[C@H](CCC(N)=O)NC(=O)[C@@H](NC(=O)[C@H](C)NC(=O)[C@@H]1CSSC[C@H](NC(=O)[C@@H](N)CCCCNC(=O)CC[C@H](NC(=O)CCCCCCCCCCCCCCCCC(=O)O)C(=O)O)C(=O)N[C@@H](CC(N)=O)C(=O)N[C@@H]([C@@H](C)O)C(=O)N[C@@H](C)C(=O)N[C@@H]([C@@H](C)O)C(=O)N1)[C@@H](C)O)C(=O)N[C@@H](CC(C)C)C(=O)N1CCC[C@H]1C(=O)N1CCC[C@H]1C(=O)N[C@H](C(=O)N[C@@H](CC(N)=O)C(=O)N[C@H](C(=O)NCC(=O)N[C@@H](CO)C(=O)N[C@@H](CC(N)=O)C(=O)N[C@H](C(=O)N[C@@H](Cc1ccc(O)cc1)C(N)=O)[C@@H](C)O)C(C)C)[C@@H](C)O
For B2, the “EC50 (cAMP production)” value was 0.13 nM in assay [1], 1.2 nM in assay [2], 0.0056 nM in assay [3] and 0.522 nM in the assay with rat calcitonin receptor. The “Ratio (EC50 hCTR / EC50 hAMYR3)” value in assay [1] worked out at 9.2.

B3: Peptide 140 (SEQ ID NO: 140) (peptide)
peptide: K([γGlu-C18 diacid])KCNTATCATQRLANFL[Aib]HSSNNFGPILPPTEVGSNTY-NH2
modifications: disulfide 3-8; N-terminus assumed
SMILES: CC[C@H](C)[C@H](NC(=O)[C@@H]1CCCN1C(=O)CNC(=O)[C@H](Cc1ccccc1)NC(=O)[C@H](CC(N)=O)NC(=O)[C@H](CC(N)=O)NC(=O)[C@H](CO)NC(=O)[C@H](CO)NC(=O)[C@H](Cc1c[nH]cn1)NC(=O)C(C)(C)NC(=O)[C@H](CC(C)C)NC(=O)[C@H](Cc1ccccc1)NC(=O)[C@H](CC(N)=O)NC(=O)[C@H](C)NC(=O)[C@H](CC(C)C)NC(=O)[C@H](CCCNC(=N)N)NC(=O)[C@H](CCC(N)=O)NC(=O)[C@@H](NC(=O)[C@H](C)NC(=O)[C@@H]1CSSC[C@H](NC(=O)[C@H](CCCCN)NC(=O)[C@@H](N)CCCCNC(=O)CC[C@H](NC(=O)CCCCCCCCCCCCCCCCC(=O)O)C(=O)O)C(=O)N[C@@H](CC(N)=O)C(=O)N[C@@H]([C@@H](C)O)C(=O)N[C@@H](C)C(=O)N[C@@H]([C@@H](C)O)C(=O)N1)[C@@H](C)O)C(=O)N[C@@H](CC(C)C)C(=O)N1CCC[C@H]1C(=O)N1CCC[C@H]1C(=O)N[C@H](C(=O)N[C@@H](CCC(=O)O)C(=O)N[C@H](C(=O)NCC(=O)N[C@@H](CO)C(=O)N[C@@H](CC(N)=O)C(=O)N[C@H](C(=O)N[C@@H](Cc1ccc(O)cc1)C(N)=O)[C@@H](C)O)C(C)C)[C@@H](C)O
Take B3: the “EC50 (cAMP production)” value in assay [1] was found to be 0.656 nM; in assay [2], 6.05 nM; in assay [3], 0.0195 nM; with rat calcitonin receptor it was 1.22 nM. The “Ratio (EC50 hCTR / EC50 hAMYR3)” value in assay [1] was 9.2.

B4: Peptide 20 (SEQ ID NO: 20) (peptide)
peptide: K([γGlu-γGlu-C18 diacid])CNTATCATQRLANFLRHSSNN[αMeF]GPILPPTNVGSNTY-NH2
modifications: disulfide 2-7; N-terminus assumed
SMILES: CC[C@H](C)[C@H](NC(=O)[C@@H]1CCCN1C(=O)CNC(=O)[C@](C)(Cc1ccccc1)NC(=O)[C@H](CC(N)=O)NC(=O)[C@H](CC(N)=O)NC(=O)[C@H](CO)NC(=O)[C@H](CO)NC(=O)[C@H](Cc1c[nH]cn1)NC(=O)[C@H](CCCNC(=N)N)NC(=O)[C@H](CC(C)C)NC(=O)[C@H](Cc1ccccc1)NC(=O)[C@H](CC(N)=O)NC(=O)[C@H](C)NC(=O)[C@H](CC(C)C)NC(=O)[C@H](CCCNC(=N)N)NC(=O)[C@H](CCC(N)=O)NC(=O)[C@@H](NC(=O)[C@H](C)NC(=O)[C@@H]1CSSC[C@H](NC(=O)[C@@H](N)CCCCNC(=O)CC[C@H](NC(=O)CC[C@H](NC(=O)CCCCCCCCCCCCCCCCC(=O)O)C(=O)O)C(=O)O)C(=O)N[C@@H](CC(N)=O)C(=O)N[C@@H]([C@@H](C)O)C(=O)N[C@@H](C)C(=O)N[C@@H]([C@@H](C)O)C(=O)N1)[C@@H](C)O)C(=O)N[C@@H](CC(C)C)C(=O)N1CCC[C@H]1C(=O)N1CCC[C@H]1C(=O)N[C@H](C(=O)N[C@@H](CC(N)=O)C(=O)N[C@H](C(=O)NCC(=O)N[C@@H](CO)C(=O)N[C@@H](CC(N)=O)C(=O)N[C@H](C(=O)N[C@@H](Cc1ccc(O)cc1)C(N)=O)[C@@H](C)O)C(C)C)[C@@H](C)O
As to B4, the “EC50 (cAMP production)” value was determined as 0.174 nM in assay [1], 4.59 nM in assay [2], 0.0104 nM in assay [3] and 1.85 nM in the assay with rat calcitonin receptor. Also, the “Ratio (EC50 hCTR / EC50 hAMYR3)” value in assay [1] was 26.

B5: Peptide 18 (SEQ ID NO: 18) (peptide)
peptide: K([γGlu-γGlu-C18 diacid])CNTATCATQRLANFLRHSSNN[αMeF]GPILPPTEVGSNTY-NH2
modifications: disulfide 2-7
With B5, the “EC50 (cAMP production)” value turned out to be 0.319 nM in assay [1], 4.69 nM in assay [2], 0.0165 nM in assay [3] and 3.09 nM with rat calcitonin receptor. The “Ratio (EC50 hCTR / EC50 hAMYR3)” value in assay [1] was 15.
